Experiment [1] has as its system bak−/− bax−/− HCT116 cells. Briefly: Apoptosis initiated by actinomycin D and TRAIL + CHX in cells constitutively expressing BAK. Particulars: constitutive pMX-BAK-IRES-GFP. Format: cell-based, human. The source says: We enriched for GFP positive cell populations by up to four rounds of sorting. Cells were used in apoptosis assays. […]
and doxycycline (Dox)-inducible mC-BAK. d, Representative i mmunoblot for BID and sypro red staining of BCL2allKO HCT116 cells expressing V74A and D83A mC-BAK and BID from n=2 independent experiments. e, Representative immunoblot of bak-/- bax- […]
from n=2 independent experiments . GFP positive cells were sorted three and four times to achieve similar expression levels. […]
human TRAIL and cycloheximide (CHX).
Data are presented as mean + SD for one representative of n=2 experiments each of n=3 technical replicates. g, Experimental […]
BAK (mC-BAK) monitored for 48 hr by IncuCyte imaging uptake of cell-impermeable dye SYTOX Green. AUC for kinetic traces is included. At 48 hr, we quantified percentage of SYTOX Green +ve cells (%) by fluorescence activated cell sorting (FACS). Data are presented as mean + SD from one of n=3 experiments each of n=3

Experiment [2] concerns BCL2allKO HCT116 cells reconstituted with mC-BAK. Briefly: Endpoint FACS analysis of SYTOX Green positive cells. The format is cell-based, human. Particulars: average, N = 3. The protocol:
We seeded cells in 24-well (100,000 cells/well), 96-well (15,000 cells/well), or 384-well (10,000 cells/well) plates coated with 10 µg/mL fibronectin. After ≥24 h of attachment and recovery, we induced cell death with Dox (up to 1000 ng/mL) and monitored SYTOX Green (25 nM) uptake by Incucyte imaging. This dye marks cells with compromised plasma membrane integrity. mC-BAK expressed before 24 h, which coincided with detectable cell death. We monitored Incucyte imaging for up to 48 h, followed by endpoint FACS analysis to measure the extent of cell death based on SYTOX Green positive cells on FACSCalibur systems (BD Biosciences). As expected, cells with low mCherry fluorescence were refractory to cell death.
(In general: Flow cytometry measures light scatter and fluorescence of single cells or particles in a stream.)

Experiment [3] is described as follows: Liposome permeabilization by WT and mutant BAK proteins (autoactivation, or direct activation by BID BH3). Format: biochemical. Particulars: absence of BID BH3. The protocol:
Human BAK-∆TM-His6 (BAK)[26] spontaneously permeabilizes liposomes above a certain dose (>100 nM, Fig. 1a). In these dye-release assays[43]–[46], BAK is recruited via His-tag to liposomes containing 2.5 µM of the lipid 1,2-dioleoyl-sn-glycero-3-[(N-(5-amino-1-carboxypentyl)iminodiacetic acid)succinyl] (nickel salt), DGS-NTA(Ni).
To probe autoactivation with full-length BAK, we mutated hydrophobic residues at positions (0)−(6) of the BH3 to alanine or arginine, and D83, which forms the conserved salt bridge (s) with R127, to alanine (Fig. 2a). The BH3 residues participate in autoactivation from the ligand side [hydrophobic positions (0)–(5) and D83(s)] and also from the receptor groove side [hydrophobic positions (3)–(5)] (Fig. 2a). Thus, substitutions at positions (3)–(5) should affect receptor and ligand activities and are predicted to impact BAK activation more severely than mutations of positions (0)–(2), which affect only ligand activity. […] In contrast, almost all (2)–(5) and (s) missense mutants were considerably impaired in autoactivation (Fig. 2b and Supplementary Fig. 3a). […] Despite impairment in autoactivation, all missense mutants were directly activated by BID BH3 peptide, although they induced lower level of permeabilization compared to WT BAK (Fig. 2b and Supplementary Fig. 3a).
We performed liposome permeabilization assays as previously described[43]–[46]. […] (nickel salt) [DGS NTA(Ni), 2.5 μM final concentration in each assay] (Avanti Polar Lipids). We prepared 12.5 mM fluorophore; 8-aminonaphthalene-1, 3, 6-trisulfonic acid, disodium salt (ANTS) and 45 mM quencher; p-xylene-bis-pyridiniumbromide (DPX) in LUV buffer (10 mM HEPES pH 6.8, 200 mM KCl and 5 mM MgCl2). We mixed the lipid film in ANTS/DPX solution by vortexing and sonication (~15 min) followed by extrusion through polycarbonate membrane of 2 μm pore size (Avanti Polar lipids) to generate homogenous large unilamellar vesicles (LUVs). We separated LUVs from free ANTS/DPX by S500 size exclusion chromatography and stored them at 4 °C in the dark. We prepared peptide and protein dilutions in 96-well black flat bottom plates (Costar) kept on ice. ANTS release from permeabilized liposomes causes an increase in fluorescence, which we monitored at 37 °C for 90 min using a CLARIOSTAR microplate reader (BMG Labtech) set at excitation and emission wavelengths of 360 and 530 nm, respectively. We normalized the data relative to maximum and minimum fluorescence induced by 3% CHAPS and buffer controls, respectively. We quantified liposome permabilization by integrating area under curve (AUC) of normalized traces based on the Simpson’s equation, and analyzed that data in Excel and GraphPad Prism. AUC measurements reflect the kinetic and extent of liposome permeabilization and provide quantitative means for comparison between different experimental conditions (e.g., BAK mutants with gross or partial variation in activity). Variability in permeabilization of different liposomes is common and our analyses compare among conditions investigated with the same liposomes. Although the absolute permeabilization values may differ, the trends for the same conditions are always very similar between different liposomes.

Experiment [4] deals with BCL2allKO HCT116 cells expressing mC-BAK and BID. The experiment can be described thus: Dox + TRAIL + CHX induced cell death by IncuCyte imaging of SYTOX Green uptake (direct activation). Format: cell-based, human. Particulars: TRAIL 200 ng/mL + CHX 0.5 µg/mL added at 6 h. The protocol: We achieved stable, constitutive expression of human BID in mC-BAK expressing BCL2allKO HCT116 by retroviral transduction based on pMX-human-BID-IRES-GFP. Amplification primers are included in Supplementary Table 4. We performed two rounds of FACS sorting gating on GFP-positive cells to enrich for populations of cells that express BID.
For coexpression of mC-BAK + BID, we treated cells with different doses of Dox for 24 h to induce expression of mC-BAK. At 6 h, we treated cells with TRAIL (200 ng/mL) + cycloheximide (CHX, 0.5 µg/mL) to promote BID activation under conditions of protein synthesis inhibition by CHX, and continued to record Incucyte imaging of SYTOX Green uptake up to 48 h. We blocked caspase activity with qVD (40 µM).

B1: V74A (1): BAK missense mutant, WT-like; in cells as mCherry fusion (protein)
chain: MASGQGPGPPRQECGEPALPSASEEQVAQDTEEVFRSYVFYRHQQEQEAEGVAAPADPEMVTLPLQPSSTMGQAGRQLAIIGDDINRRYDSEFQTMLQHLQPTAENAYEYFTKIATSLFESGINWGRVVALLGFGYRLALHVYQHGLTGFLGQVTRFVVDFMLHHCIARWIAQRGGWVAALNLGNG
modifications: left off: His6, C-terminal, kept
notes: BAK missense mutant, WT-like; in cells as mCherry fusion
Regarding B1, the “response to apoptotic inducers actinomycin D and TRAIL + CHX” value in experiment [1] is given as “respond similarly”. Moreover, the results for the “flow cytometry SYTOX Green counts/confluence (48 hr)” value in experiment [2] (Dox 100 ng/mL) and in experiment [2] (Dox 1000 ng/mL) were 40.5 and 46.1667, respectively. For the same molecule, the “autoactivation in liposome permeabilization assays” value in experiment [3] is recorded as “behave similar to WT BAK”. Moreover, the “cell death with Dox + TRAIL + CHX compared to Dox alone” value in experiment [4] is “boosted the levels of cell death”.

Values taken from article PMC8752837, “Structural basis of BAK activation in mitochondrial apoptosis initiation” (Nature Communications, 2022).
